Data published in US20220048967A1 (published 2022).
Square brackets hold non-standard residues; d marks the D form. Ends that are not written are not given here. αMePhe(2-F) = C[C@](N)(Cc1ccccc1F)C(=O)O; αMeF = C[C@](N)(Cc1ccccc1)C(=O)O; Aib = CC(C)(N)C(=O)O

T1: human gastric inhibitory peptide receptor (GIPR) (human, UniProt P48546 22-466)
T1 sequence (looked up): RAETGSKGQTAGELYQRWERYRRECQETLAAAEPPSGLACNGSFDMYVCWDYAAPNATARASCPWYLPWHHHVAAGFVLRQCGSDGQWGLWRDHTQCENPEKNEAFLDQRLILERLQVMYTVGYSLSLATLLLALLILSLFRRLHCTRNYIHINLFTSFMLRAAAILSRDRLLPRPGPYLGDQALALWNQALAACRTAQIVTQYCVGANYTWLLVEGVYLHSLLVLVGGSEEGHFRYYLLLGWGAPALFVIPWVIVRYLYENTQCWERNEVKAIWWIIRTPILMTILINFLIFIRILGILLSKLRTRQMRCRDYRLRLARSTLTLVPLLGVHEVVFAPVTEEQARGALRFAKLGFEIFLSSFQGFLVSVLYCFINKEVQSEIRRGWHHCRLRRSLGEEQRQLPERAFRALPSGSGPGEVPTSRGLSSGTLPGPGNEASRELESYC

B1: Example 144 (peptide)
peptide: Y[Aib]EGT[αMeF]TSDYSIXLDKKAQH[Aib]FIEYLIEGGPSSGAPPPS-NH2
modifications: not fully specified (residues 13, 17); printed as Y-Aib-EGT-αMeF-TSDYSI-αMeF-LDKK((2-[2-(2-Amino-ethoxy)-ethoxy]-acetyl)2-(γ-Glu)-CO-(CH2)18-CO2H)AQH-Aib-FIEYLIEGGPSSGAPPPS-NH2
B2: Example 143 (peptide)
peptide: Y[Aib]EGT[αMeF]TSDYSIXLDKKAQ[Aib][Aib]FIEYLIEGGPSSGAPPPS-NH2
modifications: not fully specified (residues 13, 17); printed as Y-Aib-EGT-αMeF-TSDYSI-αMeF-LDKK((2-[2-(2-Amino-ethoxy)-ethoxy]-acetyl)2-(γ-Glu)-CO-(CH2)18-CO2H)AQ-Aib-Aib-FIEYLIEGGPSSGAPPPS-NH2
B3: Example 142 (peptide)
peptide: Y[Aib]EGT[αMeF]TSDYSIXLDKKAQ[Aib]HFIEYLIEGGPSSGAPPPS-NH2
modifications: not fully specified (residues 13, 17); printed as Y-Aib-EGT-αMeF-TSDYSI-αMeF-LDKK((2-[2-(2-Amino-ethoxy)-ethoxy]-acetyl)2-(γ-Glu)-CO-(CH2)18-CO2H)AQ-Aib-HFIEYLIEGGPSSGAPPPS-NH2
B4: Example 145 (peptide)
peptide: Y[Aib]EGT[αMeF]TSDASIXLDKKAQ[Aib]AFIEYLIEGGPSSGAPPPS-NH2
modifications: not fully specified (residues 13, 17); printed as Y-Aib-EGT-αMeF-TSDASI-αMeF-LDKK((2-[2-(2-Amino-ethoxy)-ethoxy]-acetyl)2-(γ-Glu)-CO-(CH2)18-CO2H)AQ-Aib-AFIEYLIEGGPSSGAPPPS-NH2
B5: Example 148 (peptide)
peptide: Y[Aib]EGT[αMePhe(2-F)]TSDYSIXLDEKAQ[Aib]EFIAYLIEGGPSSGAPPPS-NH2
modifications: not fully specified (residues 13, 17); printed as Y-Aib-EGT-αMeF(2F)-TSDYSI-αMeF-LDEK((2-[2-(2-Amino-ethoxy)-ethoxy]-acetyl)2-(γ-Glu)-CO-(CH2)18-CO2H)AQ-Aib-EFIAYLIEGGPSSGAPPPS-NH2
B6: Example 146 (peptide)
peptide: Y[Aib]EGT[αMePhe(2-F)]TSDYSIXLDEKAQ[Aib]EFIQYLIEGGPSSGAPPPS-NH2
modifications: not fully specified (residues 13, 17); printed as Y-Aib-EGT-αMeF(2F)-TSDYSI-αMeF-LDEK((2-[2-(2-Amino-ethoxy)-ethoxy]-acetyl)2-(γ-Glu)-CO-(CH2)18-CO2H)AQ-Aib-EFIQYLIEGGPSSGAPPPS-NH2

Tests used:
[1] = biological target: human GLP-1 receptor (GLP-1R) (human, UniProt P43220 24-463); experiment: cell-based or functional assay
[2] = biological target: T1, human gastric inhibitory peptide …; experiment: cell-based or functional assay

Row | Binder | hGLP1R cAMP EC50 ratio [1] | hGLP1R cAMP Rel EC50 [1] [nM] | hGIPR cAMP EC50 ratio [2] | hGIPR cAMP Rel EC50 [2] [nM]
1 | B1 | 0.851 | 0.0608 | 3.6 | 0.0375
2 | B2 | 0.714 | 0.0745 | 2.78 | 0.0515
3 | B3 | 1.22 | 0.0426 | 2.84 | 0.0489
4 | B4 | 1.22 | 0.0427 | 2.46 | 0.0514
5 | B5 | 0.859 | 0.0626 | 2.7 | 0.043
6 | B6 | 0.951 | 0.0604 | 1.98 | 0.0583
